T1: human α-CGRP 1-37 (WT) (human, C-terminal amide; N-terminal biotin when captured on the SA chip; 125I-labelled in the radioligand assay)
T1 construct: also called α-human
T1 peptide: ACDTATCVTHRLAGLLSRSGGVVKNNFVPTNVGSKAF

T2: rat α-CGRP (1-37) (rat, C-terminal amide; N-terminal biotin when captured on the SA chip)
T2 construct: also called rat α (1-37); α-rat
T2 peptide: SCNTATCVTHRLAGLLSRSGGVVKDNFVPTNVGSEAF


Key:
human α-CGRP 1-37 (WT) = molecular target: T1, human α-CGRP 1-37 (WT); experiment: Biacore, 37°C, Fab over CGRP on SA chip
Protocol: (§1) Biacore assay for affinity determination. […] All Biacore assays were conducted in HBS-EP running buffer (10 mM HEPES pH 7.4, 150 mM NaCl, 3 mM EDTA, 0.005% v/v polysorbate P20). CGRP surfaces were prepared by diluting the N-biotinylated CGRP to a concentration of less than 0.001 mg/mL into HBS-EP buffer and injecting it across the SA sensor chip using variable contact times. […] Samples were typically injected for 1 minute at 100 μL/min and dissociation times of at least 10 minutes were allowed. […] An entire titration series (typically generated in duplicate) was fit globally to a 1:1 Langmuir binding model using the BIAevaluation program. This returned a unique pair of association and dissociation kinetic rate constants (respectively, kₒₙ and koff) for each binding interaction, whose ratio gave the equilibrium dissociation constant (KD=koff/kₒₙ). […]

rat α-CGRP (1-37) = molecular target: T2, rat α-CGRP (1-37); experiment: Biacore, 37°C, Fab over CGRP on SA chip
Protocol: as §1

| Binder | Kd (human α-CGRP 1-37 (WT)) [nM] | koff (human α-CGRP 1-37 (WT)) [s⁻¹] | Kd (rat α-CGRP (1-37)) [nM] | koff (rat α-CGRP (1-37)) [s⁻¹] |
| --- | --- | --- | --- | --- |
| G1 variant M13 Fab (Fab, V domains shown, Fab; constant domains as m1) VH: EVQLVESGGGLVQPGGSLRLSCAASGFTFSNYWISWVRQAPGKGLEWVAEIRSESDASATHYAEAVKGRFTISRDNAKNSLYLQMNSLRAEDTAVYYCTGYFDYGLAIQNYWGQGTLVTVSS VL: EIVLTQSPATLSLSPGERATLSCKASKRVTTYVSWYQQKPGQAPRLLIYGASNRYLGIPARFSGSGSGTDFTLTISSLEPEDFAVYYCSQSYNYPYTFGQGTKLEIK | 1.16 | 0.000186 | 102 | 0.00184 |
| G1 variant M25 Fab (Fab, V domains shown, Fab; constant domains as m1) VH: EVQLVESGGGLVQPGGSLRLSCAASGFTFSNYWISWVRQAPGKGLEWVAEIRSESDASATHYAEAVKGRFTISRDNAKNSLYLQMNSLRAEDTAVYYCTVYFDYGLAIQNYWGQGTLVTVSS VL: EIVLTQSPATLSLSPGERATLSCKASKNVTTYVSWYQQKPGQAPRLLIYGASNRYLGIPARFSGSGSGTDFTLTISSLEPEDFAVYYCSQSYNYPYTFGQGTKLEIK | 1.3 | 0.00014 | 76 | 0.0014 |
| G1 variant M29 Fab (Fab, V domains shown, Fab; constant domains as m1) VH: EVQLVESGGGLVQPGGSLRLSCAASGFTFSNYWISWVRQAPGKGLEWVAEIRSESDASATHYAEAVKGRFTISRDNAKNSLYLQMNSLRAEDTAVYYCTVYFDYGLAIQNYWGQGTLVTVSS VL: EIVLTQSPATLSLSPGERATLSCKASKNVGTYVSWYQQKPGQAPRLLIYGASNRYLGIPARFSGSGSGTDFTLTISSLEPEDFAVYYCSQSYNYPYTFGQGTKLEIK | 2.38 | 0.00038 | 199 | 0.00359 |
| G1 variant M17 Fab (Fab, V domains shown, Fab; constant domains as m1) VH: EVQLVESGGGLVQPGGSLRLSCAASGFTFSNYWISWVRQAPGKGLEWVAEIRSESDASATHYAEAVKGRFTISRDNAKNSLYLQMNSLRAEDTAVYYCTVYFDYGLAIQNYWGQGTLVTVSS VL: EIVLTQSPATLSLSPGERATLSCKASKRVTTYVSWYQQKPGQAPRLLIYGASNRYLGIPARFSGSGSGTDFTLTISSLEPEDFAVYYCSQSYNYPYTFGQGTKLEIK | 1.16 | 0.000185 | 114 | 0.00206 |
| G1 variant M31 Fab (Fab, V domains shown, Fab; constant domains as m1) VH: EVQLVESGGGLVQPGGSLRLSCAASGFTFSNYWISWVRQAPGKGLEWVAEIRSKSDGSATHYAEAVKGRFTISRDNAKNSLYLQMNSLRAEDTAVYYCTVYFDYGLAIQNYWGQGTLVTVSS VL: EIVLTQSPATLSLSPGERATLSCKASKNVGTYVSWYQQKPGQAPRLLIYGASNRYLGIPARFSGSGSGTDFTLTISSLEPEDFAVYYCSQSYNYPYTFGQGTKLEIK | 2.17 | 0.000347 | 201 | 0.00361 |
| G1 variant M27 Fab (Fab, V domains shown, Fab; constant domains as m1) VH: EVQLVESGGGLVQPGGSLRLSCAASGFTFSNYWISWVRQAPGKGLEWVAEIRSESDASATHYAEAVKGRFTISRDNAKNSLYLQMNSLRAEDTAVYYCTVYFDYGLAIQNYWGQGTLVTVSS VL: EIVLTQSPATLSLSPGERATLSCKASKNVATYVSWYQQKPGQAPRLLIYGASNRYLGIPARFSGSGSGTDFTLTISSLEPEDFAVYYCSQSYNYPYTFGQGTKLEIK | 2.23 | 0.000357 | 189 | 0.00341 |
| G1 variant M30 Fab (Fab, V domains shown, Fab; constant domains as m1) VH: EVQLVESGGGLVQPGGSLRLSCAASGFTFSNYWISWVRQAPGKGLEWVAEIRSKSDESATHYAEAVKGRFTISRDNAKNSLYLQMNSLRAEDTAVYYCTVYFDYGLAIQNYWGQGTLVTVSS VL: EIVLTQSPATLSLSPGERATLSCKASKNVGTYVSWYQQKPGQAPRLLIYGASNRYLGIPARFSGSGSGTDFTLTISSLEPEDFAVYYCSQSYNYPYTFGQGTKLEIK | 3.69 | 0.00059 | 354 | 0.00638 |
| G1 variant M21 Fab (Fab, V domains shown, Fab; constant domains as m1) VH: EVQLVESGGGLVQPGGSLRLSCAASGFTFSNYWISWVRQAPGKGLEWVAEIRSESDASATHYAEAVKGRFTISRDNAKNSLYLQMNSLRAEDTAVYYCSAYFDYGLAIQNYWGQGTLVTVSS VL: EIVLTQSPATLSLSPGERATLSCKASKWVTTYVSWYQQKPGQAPRLLIYGASNRYLGIPARFSGSGSGTDFTLTISSLEPEDFAVYYCSQSYNYPYTFGQGTKLEIK | 1.23 | 0.000142 | 15.2 | 0.000695 |

The next binders have a lower Kd (human α-CGRP 1-37 (WT)) than those just listed; values first:

| Kd (human α-CGRP 1-37 (WT)) [nM] | koff (human α-CGRP 1-37 (WT)) [s⁻¹] | Kd (rat α-CGRP (1-37)) [nM] | koff (rat α-CGRP (1-37)) [s⁻¹] | Binder |
| --- | --- | --- | --- | --- |
| 0.93 | 0.000148 | 51.3 | 0.000924 | G1 variant M26 Fab (Fab, V domains shown, Fab; constant domains as m1) VH: EVQLVESGGGLVQPGGSLRLSCAASGFTFSNYWISWVRQAPGKGLEWVAEIRSESDGSATHYAEAVKGRFTISRDNAKNSLYLQMNSLRAEDTAVYYCTVYFDYGLAIQNYWGQGTLVTVSS VL: EIVLTQSPATLSLSPGERATLSCKASKNVTTYVSWYQQKPGQAPRLLIYGASNRYLGIPARFSGSGSGTDFTLTISSLEPEDFAVYYCSQSYNYPYTFGQGTKLEIK |
| 0.93 | 0.000148 | 57.8 | 0.00104 | G1 variant M24 Fab (Fab, V domains shown, Fab; constant domains as m1) VH: EVQLVESGGGLVQPGGSLRLSCAASGFTFSNYWISWVRQAPGKGLEWVAEIRSESDASATHYAEAVKGRFTISRDNAKNSLYLQMNSLRAEDTAVYYCTVYFDYGLAIQNYWGQGTLVTVSS VL: EIVLTQSPATLSLSPGERATLSCKASKLVTTYVSWYQQKPGQAPRLLIYGASNRYLGIPARFSGSGSGTDFTLTISSLEPEDFAVYYCSQSYNYPYTFGQGTKLEIK |
| 1.03 | 0.000165 | 55.3 | 0.000996 | G1 variant M16 Fab (Fab, V domains shown, Fab; constant domains as m1) VH: EVQLVESGGGLVQPGGSLRLSCAASGFTFSNYWISWVRQAPGKGLEWVAEIRSESDASATHYAEAVKGRFTISRDNAKNSLYLQMNSLRAEDTAVYYCTSYFDYGLAIQNYWGQGTLVTVSS VL: EIVLTQSPATLSLSPGERATLSCKASKRVTTYVSWYQQKPGQAPRLLIYGASNRYLGIPARFSGSGSGTDFTLTISSLEPEDFAVYYCSQSYNYPYTFGQGTKLEIK |
| 0.73 | 0.000116 | 61.1 | 0.0011 | G1 variant M22 Fab (Fab, V domains shown, Fab; constant domains as m1) VH: EVQLVESGGGLVQPGGSLRLSCAASGFTFSNYWISWVRQAPGKGLEWVAEIRSESDASATHYAEAVKGRFTISRDNAKNSLYLQMNSLRAEDTAVYYCTAYFDYGLAIQNYWGQGTLVTVSS VL: EIVLTQSPATLSLSPGERATLSCKASKWVTTYVSWYQQKPGQAPRLLIYGASNRYLGIPARFSGSGSGTDFTLTISSLEPEDFAVYYCSQSYNYPYTFGQGTKLEIK |
| 0.62 | 9.96e-05 | 69.4 | 0.00125 | G1 variant M28 Fab (Fab, V domains shown, Fab; constant domains as m1) VH: EVQLVESGGGLVQPGGSLRLSCAASGFTFSNYWISWVRQAPGKGLEWVAEIRSRSDNSATHYAEAVKGRFTISRDNAKNSLYLQMNSLRAEDTAVYYCTVYFDYGLAIQNYWGQGTLVTVSS VL: EIVLTQSPATLSLSPGERATLSCKASKNVDTYVSWYQQKPGQAPRLLIYGASNRYLGIPARFSGSGSGTDFTLTISSLEPEDFAVYYCSQSYNYPYTFGQGTKLEIK |
| 0.44 | 7.03e-05 | 67.8 | 0.00122 | G1 variant M18 Fab (Fab, V domains shown, Fab; constant domains as m1) VH: EVQLVESGGGLVQPGGSLRLSCAASGFTFSNYWISWVRQAPGKGLEWVAEIRSESDASATHYAEAVKGRFTISRDNAKNSLYLQMNSLRAEDTAVYYCVGYFDYGLAIQNYWGQGTLVTVSS VL: EIVLTQSPATLSLSPGERATLSCKASKRVTTYVSWYQQKPGQAPRLLIYGASNRYLGIPARFSGSGSGTDFTLTISSLEPEDFAVYYCSQSYNYPYTFGQGTKLEIK |
| 0.1 | 1.58e-05 | 63.9 | 0.00115 | G1 variant M15 Fab (Fab, V domains shown, Fab; constant domains as m1) VH: EVQLVESGGGLVQPGGSLRLSCAASGFTFSNYWISWVRQAPGKGLEWVAEIRSESDASATHYAEAVKGRFTISRDNAKNSLYLQMNSLRAEDTAVYYCTPYFDYGLAIQNYWGQGTLVTVSS VL: EIVLTQSPATLSLSPGERATLSCKASKRVTTYVSWYQQKPGQAPRLLIYGASNRYLGIPARFSGSGSGTDFTLTISSLEPEDFAVYYCSQSYNYPYTFGQGTKLEIK |
| 0.81 | 0.00013 | 44.4 | 0.000799 | G1 variant M23 Fab (Fab, V domains shown, Fab; constant domains as m1) VH: EVQLVESGGGLVQPGGSLRLSCAASGFTFSNYWISWVRQAPGKGLEWVAEIRSESDASATHYAEAVKGRFTISRDNAKNSLYLQMNSLRAEDTAVYYCTVYFDYGLAIQNYWGQGTLVTVSS VL: EIVLTQSPATLSLSPGERATLSCKASKGVTTYVSWYQQKPGQAPRLLIYGASNRYLGIPARFSGSGSGTDFTLTISSLEPEDFAVYYCSQSYNYPYTFGQGTKLEIK |
| 0.85 | 0.000136 | 80 | 0.00144 | G1 variant M20 Fab (Fab, V domains shown, Fab; constant domains as m1) VH: EVQLVESGGGLVQPGGSLRLSCAASGFTFSNYWISWVRQAPGKGLEWVAEIRSESDASATHYAEAVKGRFTISRDNAKNSLYLQMNSLRAEDTAVYYCRLYFDYGLAIQNYWGQGTLVTVSS VL: EIVLTQSPATLSLSPGERATLSCKASKWVTTYVSWYQQKPGQAPRLLIYGASNRYLGIPARFSGSGSGTDFTLTISSLEPEDFAVYYCSQSYNYPYTFGQGTKLEIK |
